The source of these data is PMC10720262 (Cell Reports, 2023).

For the test, the target named is recombinant full-length PfCSP (Plasmodium falciparum circumsporozoite protein, strain NF54) (Plasmodium falciparum NF54, UniProt P19597).
Chain of recombinant full-length PfCSP (Plasmodium falciparum circumsporozoite protein, strain NF54) (P19597 20-375): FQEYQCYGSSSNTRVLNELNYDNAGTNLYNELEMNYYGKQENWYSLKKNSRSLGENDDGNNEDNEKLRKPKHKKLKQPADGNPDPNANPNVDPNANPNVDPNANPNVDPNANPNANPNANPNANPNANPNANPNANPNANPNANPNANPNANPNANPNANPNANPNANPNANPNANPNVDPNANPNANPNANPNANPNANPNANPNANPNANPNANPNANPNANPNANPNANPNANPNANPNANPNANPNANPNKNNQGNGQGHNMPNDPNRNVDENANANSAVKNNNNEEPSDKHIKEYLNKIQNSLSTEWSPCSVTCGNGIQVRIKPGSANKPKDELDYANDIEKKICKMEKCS

B1: CL-509370 (antibody, V domains shown)
VH: QVQLVESGGGVVQPGRSLRLSCAASGFTFSSYGMHWVRQAPGKGLEWVAVIWYDGSNKFYADSVKGHFTISRDNSKNTLYLQMNSLRAEDTAVYYCARDGRDLRGTGPYFDPWGQGTLVTVSS
VL: EIVMTQSPATLSVSPGERAILSCRASQSVSSNLAWYQQKPGQAPRLLIYGASIRATGIPARFRGSGSGTEFTLTISILQSEDFAVYYCQQYNNWITFGQGTRLEIK
With B1, the binding result is listed as “binds”.

B2: CL-509326 (antibody, V domains shown)
VH: QVYLVESGEGVVQPGRSLRLSCAASGFTFSNYGMHWVRQAPGKGLEWVAVIWYNGNNKFYADSVKGRFTISRDNSKNTLFLQMNSLRAEDTAVYFCARSGYSRSSYFDYWGQGTLVTVSS
VL: QSVLTQPPSVSGAPGQRVTISCTGSSSNIGAVYDVHWYQQLPGTAPKLLIYGNTNRPSGVPDRFSGSQSGTSASLAITGLQAEDEADYYCQSYDSSLSGSVFGGGTKLTVL
In the case of B2, the binding result is reported as “binds”.

B3: CL-509880 (antibody, V domains shown)
VH: QVQLVESGGGVVQPGRSLRLSCAASGFTFSNSGMHWVRQAPGKGLEWVAVIWYDGSNKYYADSVKGRFTVTRDNSKNTLYLQMNSLRAEDTAVYYCVRAYYGSGSYHFKYGMDVWGQGTTVTVSS
VL: not shown
Take B3: the binding result is listed as “binds”.

B4: CL-509293 (antibody, V domains shown)
VH: QVQLVASGGGVVQPGRSLRLTCAASGFTFSNYGMHWVRQSPGRGLEWVAIIWYDGSNKFYADSVKGRFTISRDNSKNTLYLQMNSLRAEDTAVYYCAKAEQRTNDNYYKYGMDVWGQGTTVTVST
VL: not shown
B4: the binding result is “binds”.

B5: CL-509940 (antibody, V domains shown)
VH: QVQLVESGGGVVQPGRSLRLSCAASGFTFSTYGMHWVRQAPGKGLEWVAVIWYDGSIKFYADSVKGRFTISRDDSKNTLYLQMNSLRAEDTAVYYCARDGGYSDSGRFGWFDPWGQGNLVTVSS
VL: EIVMTQSPVTLSVSPGERVTLSCRASQSVSSNLAWYQQKPGQAPRLLIYGASNRATGIPDRFSGSGSGTEFSLTVTSLQSEDFAVYYCQQYNQWRTFGQGTKVEIR
Consider B5, for which the binding result was “binds”.

B6: CL-509025 (antibody, V domains shown)
VH: QVQLVESGGGVVQPGRSLRLSCVASGFTFSDYGMHWVRQAPGKGLEWVAVIWYDGTKEFFADSVKGRFTISRDNSKDTLYLQMNSLRAEDTGIYYCATYKWNSHLDYWGQGTLVTVSS
VL: EIVLTQSPATLSLSPGERATLSCRASQTISSYLAWYQQKPGQAPRLLIYDASNRATGIPARFSGSGSGTDFTLTISSLEPEDFTVYYCQQRSNWPLTFGGGTKVGIK
Turning to B6, the binding result is recorded as “binds”.

B7: CL-509930 (antibody, V domains shown)
VH: QVQLVESGGGVVQPGRSLRLSCAASGFTFSSYGMHWVRQAPGKGLEWVAIIWHDGSNKYYADSVKGRFTISRDNSKNTLYLQMNSLRAEDTAVYYCARDYSSFYFDYWGQGTLVTVSS
VL: not shown
For B7, the binding result is on record as “binds”.

B8: CL-508758 (antibody, V domains shown)
VH: QVQLVESGGGVVQPGRSLRLSCAASGFTFSNYGMHWVRQTPGRDLEWVAIIWYDGSYKFYADSVKGRFSISRDNSKNTLNLEMKSLRVEDTAVYYCAKAYDTSSDDKYGMDVWGQGTTVTVTS
VL: DIQMTQSPSTLSASVGDRVTITCRASQSISIWLAWYQQKPGKAPKLLIYRASDLESGVPSRFSGSGSGTGFTLTISSLQPDDFATYYCQQYNSYWTFGQGTKVEIK
As for B8, the binding result was “binds”.

B9: CL-510020 (antibody, V domains shown)
VH: QVQLVESGGGVVQPGRSLRLSCAASGFTFSSFGMYWVRQAPGKGLEWVALIWYDGSNQYYADSVKGRFTISRDNSKNTLYLQMNSLRAEDTAVYYCARAGYFYGSGSPLDYWGQGTLVTVPS
VL: DIQMTQSPSTLSASVGDGVTITCRASQSISSWLAWYQQKPGKAPKLLIYMASSLESGVPSRFSGSGSGTEFTLTISSLQPDDFATYYCQQYYNYWTFGQGTKVEIK
For the molecule B9, the binding result is reported as “binds”.

B10: CL-510092 (antibody, V domains shown)
VH: QVQLVESGGGVVQPGTSLRLSCAASGFTFSNFGMYWVRQAPGKGLEWVALIWYDGSNKFYEDSVKGRFTISRDNSKNTLYLQMNSLRAEDTAVYYCAKDGGYSGPGKYGFFRHWGQGSLVTVSS
VL: DIQLTQSPSTLSASVGDRVTITCRASQSISNWLAWYQQKPGKAPKLLIYKASSLESGVPSRFSGNGSGTEFTLTISSLQPDDFATYYCHQYNFYWTFGQGTKVEIK
With B10, the binding result was “binds”.

B11: CL-510373 (antibody, V domains shown)
VH: QVQLVESGGGVVQPGRSLKLSCAASGFTFSSYGMHWVRQAPGRGLEWVSIIWYDGSNKFYSDSVQGRFTISRDDSKNTLYLQMNSLRAEDTAMYYCAMVANYTISSGAFDIWGHGTMVTVSS
VL: DIQMTQSPSTLSASVGDRVTITCRASQSISNWLAWYQQKSGKAPKLLIYKASSLESGVPSRFSGSGSGTEFTLTISSLQPDDFATYFCQQYKTYWTFGQGTKVEIK
With B11, the binding result is reported as “binds”.

B12: CL-509494 (antibody, V domains shown)
VH: QVQLVESGGGVVQPGRSLRLSCAASGFTFSNFGMHWVRQSPGRGLEWVAIIWYDGSHKFYADSVKGRFTISRDNSKNTLYLQMNSLRAEDTAVYYCAKSEQRTNDHYYKYGMDVWGQGTTVTVST
VL: DIQMTQSPSTLSASVGDRVTITCRASQSISSWLAWYQQKPGKAPTLLIYKASSLESGVPSRFSGSGSGTEFTLTISSLQPDDFATYYCQQYTNYWTFGQGTKVEIK
B12: the binding result is reported as “binds”.

B13: CL-510416 (antibody, V domains shown)
VH: QVQLVESGGGVVQPGRSLRLSCEASGFTFSNYGMHWVRQGPGKGLEWVALMWYDGSNKYYSDSVKGRFTISRDNSKSTLYLQMNSLRAEDTAVYYCARPITGNTHSKYTMDVWGQGTTVTVSS
VL: DIQMTQSPSTLSASVGDRVTITCRASQSISSWLAWYQQKPGKAPKLLIYKASTLESGVPSRFSGSGSGTEFTLTISSLQPDDFATYFCQQYNSYWTFGQGTKVEIK
Consider B13, for which the binding result is on record as “binds”.

B14: CL-509993 (antibody, V domains shown)
VH: QVQLVESGGGVVQPGRSLRLSCVASGFTFSNNGMHWVRQAPGKGLEWVAIIWYDGSNKYYADSVKGRFTISRDNSNNTLYLQMNSLRAEDTAVYYCARDRMFGSGTWNYFDPWGQGTLVTVSS
VL: EIVLTQSPATLSLSPGERATLSCRASQSVTTYLAWYQQKPGQAPRLLIYDASNRATGIPARFSGSGSGTDFTLTISSLEPEDFAVYYCQQRSNWWTFGQGTKVEIK
For the molecule B14, the binding result is on record as “binds”.

B15: CL-510082 (antibody, V domains shown)
VH: QVQLVESGGGVVQPGKSLRLSCVASGFTFSNNGMHWIRQAPGKGLEWVAIIWYDGSNKFYADSVKGRFTISRDNSHNTLYLQMNSLRAEDTAVYYCARDRMFGSGTWNYFDPWGQGTLVTVSS
VL: EIVLTQSPATLSLSPGERATLSCRASQSVSTYLAWYQQKPGQAPRLLIYDASNRATGIPARFSGSGSGTDFTLTISSLEPEDFAVYYCQQRSYWWTFGQGTKVEIK
As to B15, the binding result was “binds”.

B16: CL-509177 (antibody, V domains shown)
VH: QVQLVESGGGVVQPGRSLRLSCAASGFSFSSYGMHWVRQTPGKGLEWVAIIWYDGSNKFYADSVKGRFIISRDNSKNTLYLQMNSLRAEDTAVYYCARDGGYSTSAGDFDYWGQGTLVTVSS
VL: EIVLTQSPGTLSLSPGERATLSCRASQSVSSSYLAWYQQKPGQAPRLLIYGASSRATGIPDRFSGRGSGTDFTLTISRLEPEDFAVYYCQQYVSSFTFGPGTKVDIN
Take B16: the binding result is on record as “binds”.
